System: chimeric Caspase-9 polypeptide
Experiment: Caspase-9 mutant classes and basal activity (Table 5)
Format: cell-based
Details: Caspase-9 mutant class

Chain of chimeric Caspase-9 polypeptide (P62942 2-108 F37V limits assumed): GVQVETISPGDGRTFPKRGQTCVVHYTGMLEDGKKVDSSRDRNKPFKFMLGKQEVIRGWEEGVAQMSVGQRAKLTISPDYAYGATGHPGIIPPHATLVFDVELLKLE

Row | Molecule | Catalytic activity (class 'Catalytically dead')
1 | 402GCFNF^406AAAAA (protein, UniProt P55211 1-416, looked up, variant G402A C403A F404A N405A F406A) MDEADRRLLRRCRLRLVEELQVDQLWDALLSRELFRPHMIEDIQRAGSGSRRDQARQLIIDLETRGSQALPLFISCLEDTGQDMLASFLRTNRQAAKLSKPTLENLTPVVLRPEIRKPEVLRPETPRPVDIGSGGFGDVGALESLRGNADLAYILSMEPCGHCLIINNVNFCRESGLRTRTGSNIDCEKLRRRFSSLHFMVEVKGDLTAKKMVLALLELAQQDHGALDCCVVVILSHGCQASHLQFPGAVYGTDGCPVSVEKIVNIFNGTSCPSLGGKPKLFFIQACGGEQKDHGFEVASTSPEDESPGSNPEPDATPFQEGLRTFDQLDAISSLPTPSDIFVSYSTFPGFVSWRDPKSGSWYVETLDDIFEQWAHSEDLQSLLLRVANAVSVKGIYKQMPAAAAALRKKLFFKTS | dead
2 | 402GCFNF^406YCSTL (Casp-2) (protein, UniProt P55211 1-416, looked up, variant G402Y F404S N405T F406L) MDEADRRLLRRCRLRLVEELQVDQLWDALLSRELFRPHMIEDIQRAGSGSRRDQARQLIIDLETRGSQALPLFISCLEDTGQDMLASFLRTNRQAAKLSKPTLENLTPVVLRPEIRKPEVLRPETPRPVDIGSGGFGDVGALESLRGNADLAYILSMEPCGHCLIINNVNFCRESGLRTRTGSNIDCEKLRRRFSSLHFMVEVKGDLTAKKMVLALLELAQQDHGALDCCVVVILSHGCQASHLQFPGAVYGTDGCPVSVEKIVNIFNGTSCPSLGGKPKLFFIQACGGEQKDHGFEVASTSPEDESPGSNPEPDATPFQEGLRTFDQLDAISSLPTPSDIFVSYSTFPGFVSWRDPKSGSWYVETLDDIFEQWAHSEDLQSLLLRVANAVSVKGIYKQMPYCSTLLRKKLFFKTS | dead
3 | 402GCFNF^406QPTFT (Casp-8) (protein, UniProt P55211 1-416, looked up, variant G402Q C403P F404T N405F F406T) MDEADRRLLRRCRLRLVEELQVDQLWDALLSRELFRPHMIEDIQRAGSGSRRDQARQLIIDLETRGSQALPLFISCLEDTGQDMLASFLRTNRQAAKLSKPTLENLTPVVLRPEIRKPEVLRPETPRPVDIGSGGFGDVGALESLRGNADLAYILSMEPCGHCLIINNVNFCRESGLRTRTGSNIDCEKLRRRFSSLHFMVEVKGDLTAKKMVLALLELAQQDHGALDCCVVVILSHGCQASHLQFPGAVYGTDGCPVSVEKIVNIFNGTSCPSLGGKPKLFFIQACGGEQKDHGFEVASTSPEDESPGSNPEPDATPFQEGLRTFDQLDAISSLPTPSDIFVSYSTFPGFVSWRDPKSGSWYVETLDDIFEQWAHSEDLQSLLLRVANAVSVKGIYKQMPQPTFTLRKKLFFKTS | dead
4 | 402GCFNF^406CIVSM (Casp-3) (protein, UniProt P55211 1-416, looked up, variant G402C C403I F404V N405S F406M) MDEADRRLLRRCRLRLVEELQVDQLWDALLSRELFRPHMIEDIQRAGSGSRRDQARQLIIDLETRGSQALPLFISCLEDTGQDMLASFLRTNRQAAKLSKPTLENLTPVVLRPEIRKPEVLRPETPRPVDIGSGGFGDVGALESLRGNADLAYILSMEPCGHCLIINNVNFCRESGLRTRTGSNIDCEKLRRRFSSLHFMVEVKGDLTAKKMVLALLELAQQDHGALDCCVVVILSHGCQASHLQFPGAVYGTDGCPVSVEKIVNIFNGTSCPSLGGKPKLFFIQACGGEQKDHGFEVASTSPEDESPGSNPEPDATPFQEGLRTFDQLDAISSLPTPSDIFVSYSTFPGFVSWRDPKSGSWYVETLDDIFEQWAHSEDLQSLLLRVANAVSVKGIYKQMPCIVSMLRKKLFFKTS | dead
5 | F404A (protein) GFGDVGALESLRGNADLAYILSMEPCGHCLIINNVNFCRESGLRTRTGSNIDCEKLRRRFSSLHFMVEVKGDLTAKKMVLALLELARQDHGALDCCVVVILSHGCQASHLQFPGAVYGTDGCPVSVEKIVNIFNGTSCPSLGGKPKLFFIQACGGEQKDHGFEVASTSPEDESPGSNPEPDATPFQEGLRTFDQLDAISSLPTPSDIFVSYSTFPGFVSWRDPKSGSWYVETLDDIFEQWAHSEDLQSLLLRVANAVSVKGIYKQMPGCANFLRKKLFFKTSASRA | dead
6 | D330A-Y153F (protein) GFGDVGALESLRGNADLAFILSMEPCGHCLIINNVNFCRESGLRTRTGSNIDCEKLRRRFSSLHFMVEVKGDLTAKKMVLALLELARQDHGALDCCVVVILSHGCQASHLQFPGAVYGTDGCPVSVEKIVNIFNGTSCPSLGGKPKLFFIQACGGEQKDHGFEVASTSPEDESPGSNPEPDATPFQEGLRTFDQLAAISSLPTPSDIFVSYSTFPGFVSWRDPKSGSWYVETLDDIFEQWAHSEDLQSLLLRVANAVSVKGIYKQMPGCFNFLRKKLFFKTSASRA | dead
7 | C403P (protein) GFGDVGALESLRGNADLAYILSMEPCGHCLIINNVNFCRESGLRTRTGSNIDCEKLRRRFSSLHFMVEVKGDLTAKKMVLALLELARQDHGALDCCVVVILSHGCQASHLQFPGAVYGTDGCPVSVEKIVNIFNGTSCPSLGGKPKLFFIQACGGEQKDHGFEVASTSPEDESPGSNPEPDATPFQEGLRTFDQLDAISSLPTPSDIFVSYSTFPGFVSWRDPKSGSWYVETLDDIFEQWAHSEDLQSLLLRVANAVSVKGIYKQMPGPFNFLRKKLFFKTSASRA | dead
8 | D330A-Y153A (protein) GFGDVGALESLRGNADLAAILSMEPCGHCLIINNVNFCRESGLRTRTGSNIDCEKLRRRFSSLHFMVEVKGDLTAKKMVLALLELARQDHGALDCCVVVILSHGCQASHLQFPGAVYGTDGCPVSVEKIVNIFNGTSCPSLGGKPKLFFIQACGGEQKDHGFEVASTSPEDESPGSNPEPDATPFQEGLRTFDQLAAISSLPTPSDIFVSYSTFPGFVSWRDPKSGSWYVETLDDIFEQWAHSEDLQSLLLRVANAVSVKGIYKQMPGCFNFLRKKLFFKTSASRA | dead
9 | D330A-T317E (protein) GFGDVGALESLRGNADLAYILSMEPCGHCLIINNVNFCRESGLRTRTGSNIDCEKLRRRFSSLHFMVEVKGDLTAKKMVLALLELARQDHGALDCCVVVILSHGCQASHLQFPGAVYGTDGCPVSVEKIVNIFNGTSCPSLGGKPKLFFIQACGGEQKDHGFEVASTSPEDESPGSNPEPDAEPFQEGLRTFDQLAAISSLPTPSDIFVSYSTFPGFVSWRDPKSGSWYVETLDDIFEQWAHSEDLQSLLLRVANAVSVKGIYKQMPGCFNFLRKKLFFKTSASRA | dead
10 | G402A (protein) GFGDVGALESLRGNADLAYILSMEPCGHCLIINNVNFCRESGLRTRTGSNIDCEKLRRRFSSLHFMVEVKGDLTAKKMVLALLELARQDHGALDCCVVVILSHGCQASHLQFPGAVYGTDGCPVSVEKIVNIFNGTSCPSLGGKPKLFFIQACGGEQKDHGFEVASTSPEDESPGSNPEPDATPFQEGLRTFDQLDAISSLPTPSDIFVSYSTFPGFVSWRDPKSGSWYVETLDDIFEQWAHSEDLQSLLLRVANAVSVKGIYKQMPACFNFLRKKLFFKTSASRA | dead
11 | G402I (protein) GFGDVGALESLRGNADLAYILSMEPCGHCLIINNVNFCRESGLRTRTGSNIDCEKLRRRFSSLHFMVEVKGDLTAKKMVLALLELARQDHGALDCCVVVILSHGCQASHLQFPGAVYGTDGCPVSVEKIVNIFNGTSCPSLGGKPKLFFIQACGGEQKDHGFEVASTSPEDESPGSNPEPDATPFQEGLRTFDQLDAISSLPTPSDIFVSYSTFPGFVSWRDPKSGSWYVETLDDIFEQWAHSEDLQSLLLRVANAVSVKGIYKQMPICFNFLRKKLFFKTSASRA | dead
12 | G402Q (protein) GFGDVGALESLRGNADLAYILSMEPCGHCLIINNVNFCRESGLRTRTGSNIDCEKLRRRFSSLHFMVEVKGDLTAKKMVLALLELARQDHGALDCCVVVILSHGCQASHLQFPGAVYGTDGCPVSVEKIVNIFNGTSCPSLGGKPKLFFIQACGGEQKDHGFEVASTSPEDESPGSNPEPDATPFQEGLRTFDQLDAISSLPTPSDIFVSYSTFPGFVSWRDPKSGSWYVETLDDIFEQWAHSEDLQSLLLRVANAVSVKGIYKQMPQCFNFLRKKLFFKTSASRA | dead
13 | G402Y (protein) GFGDVGALESLRGNADLAYILSMEPCGHCLIINNVNFCRESGLRTRTGSNIDCEKLRRRFSSLHFMVEVKGDLTAKKMVLALLELARQDHGALDCCVVVILSHGCQASHLQFPGAVYGTDGCPVSVEKIVNIFNGTSCPSLGGKPKLFFIQACGGEQKDHGFEVASTSPEDESPGSNPEPDATPFQEGLRTFDQLDAISSLPTPSDIFVSYSTFPGFVSWRDPKSGSWYVETLDDIFEQWAHSEDLQSLLLRVANAVSVKGIYKQMPYCFNFLRKKLFFKTSASRA | dead
14 | D315A-D330A (protein) GFGDVGALESLRGNADLAYILSMEPCGHCLIINNVNFCRESGLRTRTGSNIDCEKLRRRFSSLHFMVEVKGDLTAKKMVLALLELARQDHGALDCCVVVILSHGCQASHLQFPGAVYGTDGCPVSVEKIVNIFNGTSCPSLGGKPKLFFIQACGGEQKDHGFEVASTSPEDESPGSNPEPAATPFQEGLRTFDQLAAISSLPTPSDIFVSYSTFPGFVSWRDPKSGSWYVETLDDIFEQWAHSEDLQSLLLRVANAVSVKGIYKQMPGCFNFLRKKLFFKTSASRA | dead
15 | F404S (protein) GFGDVGALESLRGNADLAYILSMEPCGHCLIINNVNFCRESGLRTRTGSNIDCEKLRRRFSSLHFMVEVKGDLTAKKMVLALLELARQDHGALDCCVVVILSHGCQASHLQFPGAVYGTDGCPVSVEKIVNIFNGTSCPSLGGKPKLFFIQACGGEQKDHGFEVASTSPEDESPGSNPEPDATPFQEGLRTFDQLDAISSLPTPSDIFVSYSTFPGFVSWRDPKSGSWYVETLDDIFEQWAHSEDLQSLLLRVANAVSVKGIYKQMPGCSNFLRKKLFFKTSASRA | dead
16 | F406L (protein) GFGDVGALESLRGNADLAYILSMEPCGHCLIINNVNFCRESGLRTRTGSNIDCEKLRRRFSSLHFMVEVKGDLTAKKMVLALLELARQDHGALDCCVVVILSHGCQASHLQFPGAVYGTDGCPVSVEKIVNIFNGTSCPSLGGKPKLFFIQACGGEQKDHGFEVASTSPEDESPGSNPEPDATPFQEGLRTFDQLDAISSLPTPSDIFVSYSTFPGFVSWRDPKSGSWYVETLDDIFEQWAHSEDLQSLLLRVANAVSVKGIYKQMPGCFNLLRKKLFFKTSASRA | dead

Source: patent US20210147507A1, “METHODS TO AUGMENT OR ALTER SIGNAL TRANSDUCTION” (Bellicum Pharmaceuticals, Inc., priority 2017, published 2021)
